Experimental data published in a protein production outcome set (Wang et al. 2014).

Test: label from the status in PepcDB records

Row | Sequence | protein production
1 | MRGVYRVMVKVYIENYGCARNRADGEIMAALLYLSGHEIVESPEESEIVVVNSCAVKDPTERKIARRIRELLDNGKKVIVTGCLPHVNPDVIDERVSAILGVKSIDRIVQAVEYAMRGEKLISVPDWKKRNLDKLDFPRLSPRNVYFILPIAEGCLNACTYCATRLARGVLKSYSPEKIIGWVKWAIKQGYKEIWLSAEDTGCYGFDIGTNLAKLIDEITAIEGEFRIRVGMMNPNHVLKFLDELIDAYKDEKVYKFLHLPVQSGDNEILRKMGRMYTVEEFEEIVKAFRREFPELNLHTDIIVGFPGESEEAFQRSVELIKRIRPDKVNVSRYSPRPGTIAAKWKQLPGWVVKERSRLLHRIRLQISYEINRKYIGKKVKVLIHGEGKKGNVDAVTMNYKHIILPEGRKGEFREARVKNAASTYLLGEIIT | failed
2 | MRHFRVFLRKPKRITSAAQPLETGSSGLHFSAVNPRQAPASFFPSLRRFTVRLTAARQDQLVSYFFTCFKGVSMSQSVMKKSVLRILPGLLCLALPLSSCSSSKSPKATMTATPVELRYREATEKIAKRKYNDAIVILESLMFSTRATALEDDVLKALADSYYKKKEYILAADTYRRLLQQTPDSPYARDAQFMLAKSYEKLSPFHELDQEYTVKAINEFETYLDQYPSDDSAQAANDLELYKNLMKVNPDNASYREKYEAAKEELASGSPARYSQKAISELRERLAHNRFSIARQYFKLKKYRAAEIFYDVVINQYPDTKWLESAWIGKIDSEIKQNNWFEARQSIETFQQLYPDKAKLIEPAAKRVTAHYSNKRDPKSKE | failed
3 | MRHPYVFPACVAGALLVAGCAPKQTDEETVERAFQDVNVVDETNLSEVMLTVTDPNEAISYYQRTLKSDPDRLDLRRGLATSFVRAKRFTEAASAWEKVTELKDSTHEDSVNYADALIRSGDWDTAEKVLDTVPPTYETFKRYRLEAMMADANKEWRKADSFYETAIGLTTTPAGAFNNWGYSKLTRGDFSGAEKLFGQAIRQDPTLFTAKNNLVLARSAQRKYTLPVVPMTQSERAQLLHTMALSAVRQGDIQTSKSLLRDAIDTHPQHFDAAVRALEALERSG | failed
4 | MRICLFLCLCLCMASPALAQVAVFPALSGKTDAQTLVVYSSLDEPLATPMIEGFQKANPDIAVHYEDMLTGEIYDRIVKETDAGKKTADFAFSSAMDLQVKLSNDGYAQRSDLAMSARWPAWANWRNTAYALTFEPAVFVYHKPSFTTEKPPATRAEFVDYLERHAKEVHGRIATYDIERSGVGFLFMSRDQEQFGDIWSVIKAMGAAGVKVYSTSSAILERVSDGRFVLGYNILGSYAADWASRHPDVGIVLPKDYTVVMSRIGLVPEAAANPELGRRYLEFFMSKEGQTIMARQLQIPAVSPEVAGENTANTMQAIHGAQLRPVPVSPGLMVYLDQVKRSRLIERWNEALRSQ | failed
5 | MRIDVESQNINVTSLKEAPIHLSGQIQPHGVLLVLEEPGLKILQVSNNTWGILGINAENILQKKLEDLLDSFQIERIQSGLSSGNLEFINPTKIWIRKKGDDYAVFDAVFHRNTEGFLILELEPAITQENIPFLSFYHLAKASINQLQKTANLRDFCQIIVQEVRKVTDFDRVMLYKFDDDGHGSVIAEEKLDSLEPYLGLHYPESDIPKPARKLFISNSIRVIPNAQAQAIQMIPALNPVSDRPVDLTNSILRSAANCHLEYLHNMGVGASLTISLIKDNKLWGLIACHHLSAKYVSYELRKACEFLGRVIFAEISAREETEDYDYRMNLTHIQSLLVEYMSQEDNFVDGLIKHQPSLLDLTSAQGAAVCFGDHCTLIGETPKAEDLVFLVQWLKNNVEEEVFYTDSLPQVYPDAERYKNVASGLLAIPISQRNYVLWFRPEVIQTVNWGGDPNQPFEVNKLDGNVRLCPRKSFELWKETVRLTSLPWRYVEIRAALELRKAIVNIVLRQADELAQLAHDLERSNAELKKFAYVASHDLQEPLNQVANYVQLLEMRYQDQLDADANEFITFAVEGVSLMQTLIDDVLAYSKVDTQAIAFQLTEVEKALDKALGNLRQRIAETGANITHDPLPTVMAGSTQLMQLFQNLIANAIKFRSEEAPQIHIGAERLEDEWLFSVRDNGIGIDPQFSDRIFVIFQRLHTRDEYHGTGMGLAICKKIIECHRGRIWVESQLGEGATFYFTIPVGGRERERRNGRKTQNNLFS | failed
6 | MRIFKLSPDEEERFFDNLPRFLFYYLFLFTIFWFGLTQKSAEEIRESILSGNVSPDFWRSTLVVLLLLAITDAYLMRKGDTNWNTPGAALFMLFGFFIMLLVVMYVGRASILFVVSLFLIYINTLIKTKEELRKKNH | failed
7 | MRIGGTTSPIASHSFYVATRGYMDKTQSEEKNRRPLAVRDLNFTKRIAVWLSQKQITPNQISLMSIAFALLGCAILAVYHYYPAPLWLILAALSIQARLLCNLFDGMVAVEGGKKTPAGELFNDVPDRIADPLLILGAGFVTTSALGMTLAWLCALLAVLTAYIRVLGVSIGGEADFQGPMAKQHRMALLTLSLLFIAALSLFDELPTFFAYTMDLTLIVMLIGLVLTVWRRLQHIYQFHAARASSSDHQGN | failed
8 | MRIHRLDIEAFGPFATPQHIDFDHLSAQGLFLLNGATGAGKTSILDAICFALYGSVPGARQEGKRLRSDHAAPGAEPRVVCEFSARGRRFEVTRSPAWDRPSARGRNGFTTQQAKTLLRERVAGSWEEKSSRNDEVGAELSDVLGMDREQFTRVVMLPQGDFAAFLRSKANDRLELLQKLFGTQRFEAVERQLVHQAAEAARAVQENASELKLLLDRVASEQDQLGLPAADTSAAGTEPGQEPEAWLAGVEAEVEAEWKRRQNEAAEAESLSSRLMEHFQEAQEKSQRHGRLGAAMQRRVLLELAAPRALENKEMLGKHRRAAVLSGQLEAVDSAARKLHTASARAAGLREKLDAAGLDAAKPTIALETVKASCAVLEARLPEEQRLEGITVRLAARRGELAEHLSAAEAAATVVDQLREEVSAVELEIQPLEPLADQLAEREREATAAAELVGIVARHATAASELDVITGKHLHARSASQDLRQKWLDVRELRLANAAGELAAALESGKPCAVCGSEEHPNPAQAVRTALSLAQEEEEARERFEASERALGLLAEQVSSAAQVLAGLVAQGGSADAAAAESTLADARAAALAARTAEASLEKLRVRHEALIKRIVLAQEEHDASVGAAAQASAAVHVLQEQCVALETDLAGLRGDFSSLRDRLEALEAERGLLQAAVDADRELERAEQARQDAAASLDKALSESGFASADDARREILSPADVVGLEKDLADFDAESSRLDELFGSEDLVLAAKEASIGEHPLGEAELAESKLHAANAADDARAKALSAGLAGKSAAAVARFRTEYQSLAQAGREPRNRAQMLAELADTVRGSGDNSYRMSLNAYVLAARLEQVATAASERLVAMSDGRYTLQHTDAKAARGAKSGLGLEVVDEWTGQRRDTSTLSGGESFMASLSLALGLADVVQQEAGGVDIETLFVDEGFGSLDDQALEQVMDALEGLRDGGRVVGLVSHVGEMKQRITNQLQVVKGRHGSSVRIAEAGPV | failed
9 | MRIHSPYPASWALAQRIGYLYSEGEIIYLADTPFERLLDIQRQVGQCQTMTSLSQADFEARLEAVFHQNTGESQQIAQDIDQSVDLLSLSEEMPANEDLLNEDSAAPVIRLINAILSEAIKETASDIHIETYEKTMSIRFRIDGVLRTILQPNKKLAALLISRIKVMARLDIAEKRIPQDGRISLRIGRRNIDVRVSTLPSIYGERAVLRLLDKNSLQLSLNNLGMTAADKQDLENLIQLPHGIILVTGPTGSGKSTTLYAILSALNTPGRNILTVEDPVEYELEGIGQTQVNTRVDMSFARGLRAILRQDPDVVMVGEIRDTETAQIAVQASLTGHLVLSTLHTNSASGAVTRLRDMGVESFLLSSSLAGIIAQRLVRRLCPQCRQFTPVSPQQAQMFKYHQLAVTTIGTPVGCPHCHQSGYQGRMAIHEMMVVTPELRAAIHENVDEQALERLVRQQHKALIKNGLQKVISGDTSWDEVMRVASATLESEA | failed
